Measured values as given in patent publication US20260285962 (published 2026).
Where a chain is given by its changes, count along the chain named. Each block holds one binder with its values, some of them ahead of it.

How the values were obtained:
[1] = target: T1, Human Follistatin 300 (human, UniProt P19883); assay: BLI, bivalent
T1 chain: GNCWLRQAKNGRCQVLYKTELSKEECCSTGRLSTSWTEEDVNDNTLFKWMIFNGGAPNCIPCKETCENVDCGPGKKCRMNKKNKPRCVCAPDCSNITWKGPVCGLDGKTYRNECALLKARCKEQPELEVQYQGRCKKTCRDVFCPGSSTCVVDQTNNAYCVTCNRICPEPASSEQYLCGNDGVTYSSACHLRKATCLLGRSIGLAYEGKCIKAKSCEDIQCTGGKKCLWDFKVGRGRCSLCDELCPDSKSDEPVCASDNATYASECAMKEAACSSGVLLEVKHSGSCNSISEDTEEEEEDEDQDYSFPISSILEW

[2] = target: T2, Human Activin A-Fc (human); assay: BLI, bivalent
T2 chain: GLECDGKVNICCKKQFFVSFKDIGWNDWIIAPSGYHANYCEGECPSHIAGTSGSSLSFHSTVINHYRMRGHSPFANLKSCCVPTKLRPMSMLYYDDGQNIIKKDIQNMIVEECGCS

[3] = target: T3, Human GDF11 (human, UniProt O95390); assay: BLI, bivalent
T3 chain: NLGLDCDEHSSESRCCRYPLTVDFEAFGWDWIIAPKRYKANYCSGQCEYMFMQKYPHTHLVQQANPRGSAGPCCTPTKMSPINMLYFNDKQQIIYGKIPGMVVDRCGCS

[4] = target: T4, Human GDF10 (human, UniProt P55107); assay: BLI, bivalent
T4 chain: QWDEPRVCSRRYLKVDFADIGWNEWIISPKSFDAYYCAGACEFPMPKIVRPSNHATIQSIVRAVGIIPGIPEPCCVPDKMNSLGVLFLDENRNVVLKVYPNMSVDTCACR

[5] = target: T5, Human GDNF (human, UniProt P39905); assay: BLI, bivalent
T5 chain: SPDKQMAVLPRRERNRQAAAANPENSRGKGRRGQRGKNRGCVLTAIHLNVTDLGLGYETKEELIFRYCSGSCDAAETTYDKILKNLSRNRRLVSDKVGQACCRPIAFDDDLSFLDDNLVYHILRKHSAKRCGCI

[6] = target: T6, Human Activin B (human); assay: BLI, bivalent
T6 chain: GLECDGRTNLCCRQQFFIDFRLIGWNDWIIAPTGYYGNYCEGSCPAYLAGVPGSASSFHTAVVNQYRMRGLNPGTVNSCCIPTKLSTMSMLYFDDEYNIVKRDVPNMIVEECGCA

[7] = target: T7, GDF15-Fc (UniProt Q99988); assay: BLI, bivalent
T7 chain: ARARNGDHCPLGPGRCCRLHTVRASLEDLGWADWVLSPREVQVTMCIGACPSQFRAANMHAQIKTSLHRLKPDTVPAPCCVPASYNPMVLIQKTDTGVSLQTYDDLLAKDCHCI

[8] = target: Human GDF8 (human, UniProt O14793); assay: BLI, bivalent
Human GDF8, sequence (O14793 267-375): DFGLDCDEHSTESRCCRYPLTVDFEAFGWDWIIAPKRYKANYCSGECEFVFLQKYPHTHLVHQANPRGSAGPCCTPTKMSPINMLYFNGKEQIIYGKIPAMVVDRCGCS

[9] = target: T8, BMP10 (UniProt O95393); assay: BLI, bivalent
T8 chain: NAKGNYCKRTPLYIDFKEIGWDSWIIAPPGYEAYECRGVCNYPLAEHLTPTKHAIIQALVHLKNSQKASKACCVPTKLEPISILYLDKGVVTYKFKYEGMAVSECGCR

[10] = target: T9, BMP9 (UniProt Q9UK05); assay: BLI, bivalent
T9 chain: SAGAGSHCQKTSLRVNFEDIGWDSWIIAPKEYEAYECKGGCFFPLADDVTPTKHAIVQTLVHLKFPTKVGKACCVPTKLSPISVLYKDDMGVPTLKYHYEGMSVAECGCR

[11] = target: T10, Human Activin A (biotinylated) (human); assay: SPR, 25C, monovalent
T10 chain: T2 chain

[12] = target: T2, Human Activin A-Fc; assay: BLI, monovalent
[13] = target: T4, Human GDF10; assay: BLI, bivalent
[14] = target: T3, Human GDF11; assay: BLI, bivalent

- binding result [1]: no binding
- Kd [2]: 552 pM
- Kd [3]: 8410 pM
- Kd [4]: 25800 pM
- binding result [5]: no binding
- Kd [6]: 861 pM
- binding result [7]: no binding
- binding result [8]: no binding
- binding result [9]: no binding
- binding result [10]: no binding
B1: Clone C IgG (antibody, V domains shown)
VH: QLQLQESGPGLVKPSETLSLTCTVSGGSISSYDPYWGWIRQPPGKGLEWIGSISYSGSTLYNPSLKSRVTISVDTSKNQFSLKLSSVTAADTAVYYCAREVSYLGSRRYGMDVWGQGTTVTVSS
VL: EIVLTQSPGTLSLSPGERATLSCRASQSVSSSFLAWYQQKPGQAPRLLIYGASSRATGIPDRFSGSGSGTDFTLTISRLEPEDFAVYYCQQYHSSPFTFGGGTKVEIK

- Kd [11]: 83.2 pM
- Kd [12]: 963 pM
B2: Clone C Fab (antibody, V domains shown)
VH: B1 VH
VL: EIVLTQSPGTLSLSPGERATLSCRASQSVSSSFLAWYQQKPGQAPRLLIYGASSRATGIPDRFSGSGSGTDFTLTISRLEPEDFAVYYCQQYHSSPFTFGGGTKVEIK

- binding result [1]: no binding
- Kd [2]: 545 pM
- binding result [5]: no binding
- Kd [6]: 766 pM
- binding result [7]: no binding
- binding result [8]: no binding
- binding result [9]: no binding
- binding result [13]: no binding
- binding result [14]: no binding
- binding result [10]: no binding
B3: Clone B IgG (antibody, V domains shown)
VH: QLQLQESGPGLVKPSETLSLTCTVSGGSISSQQYYWGWIRQPPGKGLEWIGSISYAASTYYNPSLKSRVTISVDTSKNQFSLKLSSVTAADTAVYYCAREGYDSYSYDVWGQGTMVTVSS
VL: EIVLTQSPATLSVSPGERATLSCRASQSVGSNLAWYQQKPGQAPRLLIYGASTRATGIPARFSGSGSGTEFTLTISSLQSEDFAVYYCQQYNFYPPITFGGGTKVEIK

- binding result [1]: no binding
- Kd [2]: 661 pM
- binding result [5]: no binding
- Kd [6]: 760 pM
- binding result [7]: no binding
- binding result [8]: no binding
- binding result [9]: no binding
- binding result [13]: no binding
- binding result [14]: no binding
- binding result [10]: no binding
B4: Clone A IgG (antibody, V domains shown)
VH: B3 VH with Q32S, Q33S, A56S, A57G
VL: B3 VL

- Kd [11]: 1640 pM
- Kd [12]: 3550 pM
B5: Clone A Fab (antibody, V domains shown)
VH: B3 VH with Q32S, Q33S, A56S, A57G
VL: B3 VL

- Kd [11]: 903 pM
- Kd [12]: 2100 pM
B6: Clone B Fab (antibody, V domains shown)
VH: B3 VH
VL: B3 VL
